In US20110165145A1, “IGF-II/IGF-IIE BINDING PROTEINS” (priority 2008, published 2011):

Target: insulin-like growth factor I (IGF-I) (UniProt P05019)
Assay: cell-based or functional assay

Sequence of insulin-like growth factor I (IGF-I) (P05019 49-118 limits assumed): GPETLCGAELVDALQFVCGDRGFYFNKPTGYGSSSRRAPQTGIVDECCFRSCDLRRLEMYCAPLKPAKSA

IGF-I stimulated Ba/F3 cell proliferation: 30 % inhibition
Substance: Neu-IGF-II antibody (anti-IGF-II antibody, R&D system Cat# MAB292)
